Assays:
[1] = target: T1, RC3H1-N2 (RING+ROQ+CCCH Zn finger) (Homo sapiens, UniProt Q5TC82 2-452); assay: EMSA; EMSA: 20 mM Tris-HCl pH 7.5, 50 mM KCl, 5 mM MgCl2, 20 uM ZnSO4, 10% glycerol, 2 mM DTT, 0.05 mg/ml BSA, 5 ug/ml heparin; 50 fmol RNA in 20 ul, room temperature
T1 sequence: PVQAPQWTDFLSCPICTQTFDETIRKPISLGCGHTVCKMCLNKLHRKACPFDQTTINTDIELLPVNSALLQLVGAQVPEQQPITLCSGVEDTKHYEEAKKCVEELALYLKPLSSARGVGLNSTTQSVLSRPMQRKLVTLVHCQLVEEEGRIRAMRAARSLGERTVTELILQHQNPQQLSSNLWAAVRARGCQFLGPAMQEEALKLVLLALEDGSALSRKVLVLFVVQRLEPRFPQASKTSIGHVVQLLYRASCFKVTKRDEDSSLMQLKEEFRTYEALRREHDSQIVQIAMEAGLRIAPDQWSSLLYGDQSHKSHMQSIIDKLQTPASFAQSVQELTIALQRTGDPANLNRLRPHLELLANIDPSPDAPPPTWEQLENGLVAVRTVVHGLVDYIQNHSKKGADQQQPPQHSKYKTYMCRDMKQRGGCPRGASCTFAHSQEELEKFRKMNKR

RC3H1-N1 (RING+ROQ) = target: T2, RC3H1-N1 (RING+ROQ) (Homo sapiens, UniProt Q5TC82 2-399); assay: as above
T2 sequence: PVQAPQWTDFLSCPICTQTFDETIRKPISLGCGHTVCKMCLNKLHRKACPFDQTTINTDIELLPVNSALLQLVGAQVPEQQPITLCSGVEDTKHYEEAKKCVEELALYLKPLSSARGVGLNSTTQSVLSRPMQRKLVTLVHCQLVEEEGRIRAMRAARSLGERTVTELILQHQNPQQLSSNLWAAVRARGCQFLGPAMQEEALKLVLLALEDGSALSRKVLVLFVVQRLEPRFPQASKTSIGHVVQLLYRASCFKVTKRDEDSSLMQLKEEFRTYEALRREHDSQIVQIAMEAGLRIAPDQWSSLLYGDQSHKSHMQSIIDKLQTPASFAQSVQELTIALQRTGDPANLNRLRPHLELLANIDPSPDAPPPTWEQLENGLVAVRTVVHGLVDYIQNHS

[2] = target: T1, RC3H1-N2 (RING+ROQ+CCCH Zn finger); assay: EMSA; complex formation seemed independent of the Zn finger; EMSA: 20 mM Tris-HCl pH 7.5, 50 mM KCl, 5 mM MgCl2, 20 uM ZnSO4, 10% glycerol, 2 mM DTT, 0.05 mg/ml BSA, 5 ug/ml heparin; 50 fmol RNA in 20 ul, room temperature
[3] = target: T1, RC3H1-N2 (RING+ROQ+CCCH Zn finger); assay: EMSA; virtually unaffected vs WT; EMSA: 20 mM Tris-HCl pH 7.5, 50 mM KCl, 5 mM MgCl2, 20 uM ZnSO4, 10% glycerol, 2 mM DTT, 0.05 mg/ml BSA, 5 ug/ml heparin; 50 fmol RNA in 20 ul, room temperature
[4] = target: T1, RC3H1-N2 (RING+ROQ+CCCH Zn finger); assay: EMSA; higher affinity than the 21-nt hairpin; EMSA: 20 mM Tris-HCl pH 7.5, 50 mM KCl, 5 mM MgCl2, 20 uM ZnSO4, 10% glycerol, 2 mM DTT, 0.05 mg/ml BSA, 5 ug/ml heparin; 50 fmol RNA in 20 ul, room temperature

CCCUUACAUUAUGUAUGAGGG (structured_RNA) [A20 (21 nt) stem-loop WT]: binds [1].

CCUCCCCCCCUGCCCCCCAGC (ssRNA) [Mut3 (21 nt) control]: no binding [1].

AUUUCUGUGAAAU (structured_RNA) [ICOS (13 nt) CDE-like stem-loop]: binds (RC3H1-N1 (RING+ROQ)); binds [2].

CCCUUACAUAAUGUAUGAGGG (structured_RNA) [Mut1 (21 nt)]: binds [3].

AUAUAUAAUAUACCCUUACAUUAUGUAUGAGGGAUUU (structured_RNA) [A20 (37 nt) ARE-stem-loop]: binds [4].

From PMC4510711
